For orientation: Kd means a measure of binding affinity in units of concentration. Read a low Kd as tighter binding. Usually koff stands for the first-order rate constant of dissociation. Higher therefore signals a short-lived complex.

Assay [1] concerns the target T1, IL-2Rβγ complex (UniProt P14784 27-551; P31785 23-369). Description: cell-based or functional assay.
Assay [2] has as its target T1, IL-2Rβγ complex. Description: SPR; Biacore, IL-2 receptor proteins immobilised on a CM5 chip; wild-type IL-2 or variant 012 flowed over at stepwise concentrations for 120 s, then blank solution; 1:1 binding fit (steady state affinity for 001 on IL-2Rα). The note with it: both partners purified. In general terms: Surface plasmon resonance follows binding to a sensor surface in real time, without labels.

The next assay addresses IL-2Rαβγ complex (UniProt P01589 22-272; P14784 27-551; P31785 23-369). Described as above. The note with it: both partners purified.

T1 sequence (P14784 27-551, chain 1 of 2): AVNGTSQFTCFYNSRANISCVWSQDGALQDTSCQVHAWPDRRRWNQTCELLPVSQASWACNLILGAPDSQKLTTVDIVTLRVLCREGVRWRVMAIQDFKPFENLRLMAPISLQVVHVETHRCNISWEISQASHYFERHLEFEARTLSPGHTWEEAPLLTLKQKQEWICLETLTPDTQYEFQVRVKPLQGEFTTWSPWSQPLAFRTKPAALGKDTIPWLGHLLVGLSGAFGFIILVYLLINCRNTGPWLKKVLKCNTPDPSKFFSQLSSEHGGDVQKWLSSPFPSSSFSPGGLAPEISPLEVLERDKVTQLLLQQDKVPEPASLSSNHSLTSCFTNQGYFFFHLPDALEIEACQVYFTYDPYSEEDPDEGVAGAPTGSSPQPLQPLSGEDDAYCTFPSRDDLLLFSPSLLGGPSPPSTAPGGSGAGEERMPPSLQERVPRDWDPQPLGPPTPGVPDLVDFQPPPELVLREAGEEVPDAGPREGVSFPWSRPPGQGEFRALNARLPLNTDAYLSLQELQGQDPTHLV
T1 sequence (P31785 23-369, chain 2 of 2): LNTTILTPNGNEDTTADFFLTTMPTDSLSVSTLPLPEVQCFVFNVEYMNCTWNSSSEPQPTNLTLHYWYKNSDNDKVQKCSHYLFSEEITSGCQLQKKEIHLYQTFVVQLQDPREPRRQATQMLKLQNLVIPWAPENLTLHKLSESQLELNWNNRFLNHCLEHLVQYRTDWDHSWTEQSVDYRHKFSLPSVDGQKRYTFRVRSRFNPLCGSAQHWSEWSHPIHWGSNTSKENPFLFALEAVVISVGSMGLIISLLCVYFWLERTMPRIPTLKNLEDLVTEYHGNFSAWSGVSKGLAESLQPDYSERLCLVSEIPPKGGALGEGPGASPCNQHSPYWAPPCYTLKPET
Sequence of IL-2Rαβγ complex (P01589 22-272, chain 1 of 3): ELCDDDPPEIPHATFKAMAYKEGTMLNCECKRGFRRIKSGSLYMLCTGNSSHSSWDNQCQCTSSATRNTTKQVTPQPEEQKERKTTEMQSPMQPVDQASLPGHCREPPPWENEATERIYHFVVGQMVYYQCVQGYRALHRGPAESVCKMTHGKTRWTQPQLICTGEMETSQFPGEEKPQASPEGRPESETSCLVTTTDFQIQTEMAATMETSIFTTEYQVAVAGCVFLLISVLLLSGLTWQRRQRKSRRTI
Sequence of IL-2Rαβγ complex (P14784 27-551, chain 2 of 3): as the sequence (P14784 27-551, chain 1 of 2) above
Sequence of IL-2Rαβγ complex (P31785 23-369, chain 3 of 3): as the sequence (P31785 23-369, chain 2 of 2) above

B1: IL-2 variant 012 (ligand)
chain: PTSSSTKKTQLQLEHLLLDLQMILNGINNYKNPLRPRDLISNINVIVLELKGSETTELKHLQSLEEELKDLEEVLNLAQSKNFHTIVEFLNRWITFSQSIISTLT
notes: also called βγ-only IL-2v
As to B1, in the assay with IL-2Rβγ complex [1], the “EC50 of STAT5 activation (pSTAT5) in CD8 T cells of human PBMC (Table S4)” value worked out at 18.6 nM and the “EC50 of STAT5 activation (pSTAT5) in NK cells of human PBMC (Table S4)” value was determined as 5.11 nM. In the assay with IL-2Rβγ complex [2], the dissociation constant Kd was found to be 0.467 nM and the koff is 0.00106 s⁻¹. Also, in the assay with IL-2Rαβγ complex, the Kd came out at 0.575 nM and the off-rate constant (koff) was 0.000732 s⁻¹.

The values are drawn from PMC11024467, “A novel dual mechanism-of-action bispecific PD-1-IL-2v armed by a “βγ-only” interleukin-2 variant” (Frontiers in Immunology, 2024).
